The record followed here is patent US20240389562.

What all share (test): cell_activity
The test system of series [1] is XTN TALEN 3 right monomer. As to conditions: Cel-1 assay, value for the pair.
A further series concerns XTN TALEN 1 left monomer. The conditions noted are these: Cel-1 assay, value for the pair.
Series [2] relates to XTN TALEN 2 right monomer. As to conditions: Cel-1 assay, value for the pair; most active.
Series [3] deals with XTN TALEN 1 right monomer. The conditions noted are these: Cel-1 assay, value for the pair.
A further series relates to XTN TALEN 3 left monomer. As to conditions: Cel-1 assay, value for the pair.
In a further series the test system is XTN TALEN 2 left monomer. The conditions noted are these: Cel-1 assay, value for the pair; most active.

Regarding “GTCATTGAGCAAATGCA (double strand) [TALEN 3 right half-site]”, in series [1], the activity came out at 3%.
The sequence “TATGCGGACCTTTATCTA (double strand) [TALEN 1 left half-site]” came in with an activity in the series with XTN TALEN 1 left monomer of 5%.
For “TTCCTAAGTGCAGGGA (double strand) [TALEN 2 right half-site]”, the activity in series [2] amounted to 9%.
Turning to “AGTGCAGGGAGCCACA (double strand) [TALEN 1 right half-site]”, in series [3], the activity came to 5%.
As for “TCTGCCAACCTCACAT (double strand) [TALEN 3 left half-site]”, the activity with XTN TALEN 3 left monomer was determined as 3%.
In the series with XTN TALEN 2 left monomer, “TGCAGTATGCGGACCTT (double strand) [TALEN 2 left half-site]” yielded an activity of 9%.
